Assay results: patent US20250215089A1 (HARBOUR BIOMED SHANGHAI, published 2025)
Where “and” joins values, the source holds several entries; their conditions need not be identical. Identical values can stand only once.

How the values were obtained:
human PD-L1 [1] = molecular target: T1, human PD-L1 (human, UniProt Q9NZQ7 19-290); experiment: cell-based or functional assay
human PD-L1 [2] = molecular target: T1, human PD-L1; experiment: FACS, CHO-K1/hPD-L1 cells
Experimental: Specifically, the cells expressing PD-L1 were digested and resuspended in PBS buffer containing 2% BSA. The cells were adjusted to a cell density of 1×10⁶ cells/mL, respectively. The cells were seeded in a 96-well V-bottom plate (Corning, #3894) at 100 μL/well, and the antibody to be tested at 2×final concentration with 4-fold concentration gradient dilution was then added at 100 μL/well. The cells were incubated at 4° C. for 2 hours in the dark. After the incubation, the cells were rinsed twice by adding pre-chilled PBS containing 2% BSA at 100 μL/well, and centrifuged at 500 g at 4° C. for 5 minutes, and the supernatant was discarded. […] The cells were washed twice by adding pre-chilled PBS containing 2% BSA at 100 µL/well, and centrifuged at 500 g at 4° C. for 5 minutes, and the supernatant was discarded. Finally, the cells were resuspended in pre-chilled PBS buffer containing 2% BSA at 200 μL/well. The fluorescence signal values were read using a BD FACS CANTOII flow cytometer or ACEA NovoCyte flow cytometer, and the data were processed and analyzed using FlowJo v10 software (FlowJo, LLC).
(§1) Data processing and graphical analysis were performed using GraphPad Prism 8 software. The binding curve of the antibody to the target cell and parameters, such as EC₅₀ value were obtained by four-parameter nonlinear fitting.

human CD40 [3] = molecular target: T2, human CD40 (human, UniProt P25942 21-277); experiment: FACS, Raji cells
T2 construct: whole, on cells; also called hCD40; TNFRSF5
T2 sequence (P25942 21-277): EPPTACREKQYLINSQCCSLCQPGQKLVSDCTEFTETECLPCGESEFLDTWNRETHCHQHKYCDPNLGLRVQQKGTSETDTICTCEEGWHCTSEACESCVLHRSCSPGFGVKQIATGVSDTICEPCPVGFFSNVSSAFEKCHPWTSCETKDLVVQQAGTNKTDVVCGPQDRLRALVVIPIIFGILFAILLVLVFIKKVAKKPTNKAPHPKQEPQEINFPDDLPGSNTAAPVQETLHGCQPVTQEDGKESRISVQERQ
Experimental: The cells were incubated at 4° C. for 1 hours in the dark. After the incubation, the cells were rinsed twice by adding pre-chilled PBS at 100 μL/well, and centrifuged at 500 g at 4° C. for 5 minutes, and the supernatant was discarded. Then, a fluorescent secondary antibody (goat anti-human IgG (H+L) secondary antibody, Alexa Fluor® 488 conjugate, Invitrogen, #A11013, 1:1000 dilution) was added at 100 μL/well, and the cells were incubated at 4° C. for 30 minutes in the dark. The cells were washed twice with pre-chilled PBS at 200 μL/well, and centrifuged at 500 g at 4° C. for 5 minutes, and the supernatant was discarded. Finally, the cells were resuspended in pre-chilled PBS at 200 μL/well. The fluorescence signal values were read using a BD FACS CANTOII flow cytometer or ACEA NovoCyte flow cytometer, and the data were processed and analyzed using FlowJo v10 software (FlowJo, LLC).
as §1

human CD40 [4] = molecular target: T2, human CD40; experiment: FACS, Raji cells; remark: listed apart in the source
How it was run: (§2)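 Cells carrying bound test antibody were kept 1 h at 4° C in the dark, washed in cold PBS, then stained 30 min at 4° C with Alexa Fluor 488 goat anti-human IgG (H+L) (1:1000). Fluorescence signal was read by flow cytometry.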

human CD40 [5] = molecular target: T2, human CD40; experiment: cell-based or functional assay
human CD40 [6] = molecular target: T2, human CD40; experiment: FACS, MDA-MB-231 cells
human CD40 [7] = molecular target: T2, human CD40; experiment: cell-based or functional assay; remark: listed apart in the source
human CD40 [8] = molecular target: T2, human CD40; experiment: FACS, CHO-K1/hCD40 cells
How it was run: as §2

cynomolgus monkey CD40 = molecular target: T3, cynomolgus monkey CD40 (cynomolgus monkey); experiment: FACS, CHO-K1/cyCD40 cells
T3 construct: whole, on cells; also called cyCD40
How it was run: as §2

cynomolgus monkey PD-L1 = molecular target: T4, cynomolgus monkey PD-L1 (cynomolgus monkey); experiment: FACS, CHO-K1/cyPD-L1 cells
T4 construct: whole, on cells; also called cyPD-L1
How it was run: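 Binding of antibodies to PD-L1-expressing cells (1×10⁶ cells/mL in PBS/2% BSA), tested in 4-fold dilution series. Incubation 2 h at 4° C in the dark, then washes. Fluorescence read by flow cytometry.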

T1 sequence (Q9NZQ7 19-290): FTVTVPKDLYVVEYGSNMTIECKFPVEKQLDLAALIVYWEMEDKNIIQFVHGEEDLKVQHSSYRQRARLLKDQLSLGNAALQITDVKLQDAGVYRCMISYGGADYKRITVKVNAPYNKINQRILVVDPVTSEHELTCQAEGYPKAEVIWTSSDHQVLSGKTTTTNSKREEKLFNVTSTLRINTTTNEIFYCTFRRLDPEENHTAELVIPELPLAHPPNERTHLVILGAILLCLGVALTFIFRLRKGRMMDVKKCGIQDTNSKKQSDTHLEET

EC50, Jurkat-NFAT-hPD1 reporter (human PD-L1 [1])	Maximum (RLU), Jurkat-NFAT-hPD1 reporter (human PD-L1 [1])	EC50 (human PD-L1 [2])	Maximum MFI (human PD-L1 [2])	Binder	also measured
166 pM	13400 RLU	1080 pM	419000 MFI	PR005878 (antibody, human IgG1, V domains shown, HCAb; human IgG1 Fc; no light chain) VH: QVQLVESGGGVVQPGMSLRLSCAASGFTFSSYGMYWVRQAPGKGQEWVASIRYTGTEKHYADSVKGRFTISRDNSKNTLYLEMNSLRVEDTAVYYCAKNRALFGVIPDDSDIRGQGTMVTVSS	–
151 pM	13800 RLU	964 pM	405000 MFI	PR006245 (antibody, human IgG1, V domains shown, HCAb; human IgG1 Fc; no light chain) VH: QVQLVESGGGVVQPGMSLRLSCAASGFDFSSYGMYWVRQAPGKGQEWVASIRYTGTEKHYADSVKGRFTISRDNSKNTLYLEMNSLRVEDTAVYYCAKNRAIFGVVPDASDIRGQGTMVTVSS	–
150 pM	13400 RLU	1010 pM	410000 MFI	PR006247 (antibody, human IgG1, V domains shown, HCAb; human IgG1 Fc; no light chain) VH: QVQLVESGGGVVQPGMSLRLSCAASGFDFSSYGMYWVRQAPGKGQEWVASIRYTGTEKHYADSVKGRFTISRDNSKNTLYLEMNSLRVEDTAVYYCAKNRALFGVIPDASDIRGQGTMVTVSS	–
121 pM	14100 RLU	606 pM	404000 MFI	PR006248 (antibody, human IgG1, V domains shown, HCAb; human IgG1 Fc; no light chain) VH: QVQLVESGGGVVQPGMSLRLSCAASGFDFSSYGMYWVRQAPGKGQEWVASIRYTGTEKHYADSVKGRFTISRDNSKNTLYLEMNSLRVEDTAVYYCAKNRALFGVIPDDSDIRGQGTMVTVSS	–
132 pM	13700 RLU	764 pM	396000 MFI	PR006246 (antibody, human IgG1, V domains shown, HCAb; human IgG1 Fc; no light chain) VH: QVQLVESGGGVVQPGMSLRLSCAASGFDFSSYGMYWVRQAPGKGQEWVASIRYTGTEKHYADSVKGRFTISRDNSKNTLYLEMNSLRVEDTAVYYCAKNRAIFGVIPDDSDIRGQGTMVTVSS	–
217 pM	12100 RLU	860 pM and 1310 pM	–	PR002082 (antibody, human IgG1, V domains shown, HCAb; PTM variant of PR000960 (N28T, N31S); human IgG1 Fc; no light chain) VH: QVQLVESGGGVVQPGMSLRLSCAASGFTFSSYGMYWVRQAPGKGQEWVAIIWYDGTKKHYADSVKGRFTISRDNSKNTLYLEMNSLRVEDTAVYYCAKNRAIFGVVPDASDIRGQGTMVTVSS	–
–	–	–	–	Selicrelumab (antibody, human IgG2, kappa, V domains shown, Positive control anti-CD40 antibody; also called PR001028) VH: not shown VL: DIQMTQSPSSVSASVGDRVTITCRASQGIYSWLAWYQQKPGKAPNLLIYTASTLQSGVPSRFSGSGSGTDFTLTISSLQPEDFATYYCQQANIFPLTFGGGTKVEIKR	EC50 (human CD40 [3]): 484 pM; Maximum MFI (human CD40 [3]): 2450 MFI; EC50 (human CD40 [4]): 3020 pM; Maximum MFI (human CD40 [4]): 5170 MFI; EC50, HEK293-hCD40-NFκB reporter, crosslinked (CHO-K1/hCD32B) (human CD40 [5]): 41.3 pM; EC50, HEK293-hCD40-NFκB reporter, uncrosslinked (CHO-K1) (human CD40 [5]): 163 pM; Fold (EC50 in the absence of crosslinking/EC50 in the presence of crosslinking) (human CD40 [5]): 3.94 fold; EC50 (human CD40 [6]): 936 pM; EC50, HEK293-hCD40-NFκB reporter, + CHO-K1 (human CD40 [7]): 183 pM and 241 pM; EC50, HEK293-hCD40-NFκB reporter, + CHO-K1/hPD-L1 (human CD40 [7]): 156 pM and 205 pM; EC50 (human CD40 [8]): 2580 pM; Maximum MFI (human CD40 [8]): 13900 MFI; EC50 (cynomolgus monkey CD40): 4740 pM; Maximum MFI (cynomolgus monkey CD40): 53400 MFI; Maximum MFI (cynomolgus monkey PD-L1): 94 MFI
